For the experiment, the system named is PKC. The experiment in a line: PKC activity assay with EGF receptor peptide substrate. Format: biochemical. On the procedure: In order to asses the ability of these peptides to modulate PKC activity, the following assay was performed in the presence and absence of AKAP 79 peptide fragments. PKC [50 nM dissolved in 50 mM tris-HCl (pH 7.4), 5 mM MgCl2 1.2 mM CaCl2, 1 mM DTT, 1 mM EGTA and 100 μg/ml PS] was incubated with EGF receptor peptide substrate (5 μM) at 30° C. for five minutes. Phosphorylation reaction was initiated by addition of 100 μM ^32 P-ATP (500 cpm/pmol) and the reaction allowed to proceed for ten minutes at 30° C. Aliquots of reaction mixture were removed and spotted into P81 filter paper and the reaction terminated by washing the filter paper with excess 75 mM phosphoric acid (three washes for three minutes each). After a final wash in ethanol, the p81 filters were dried and radioactivity was measured by liquid scintillation counting.

B1: recombinant fragment to the first 75 amino acids of AKAP 79: recombinant fragment of AKAP 79, amino acids 1-75 (protein, UniProt P24588 1-75, looked up, fragment)
chain: METTISEIHVENKDEKRSAEGSPGAERQKEKASMLCFKRRKKAAKALKPKAGSEAADVARKCPQEAGASDQPEPT
For B1, the “effect of incubation with CaM on inhibition of PKC” value (CaM 15 μM, excess Ca2+) is given as “prevented inhibition”. For the same molecule, the IC50 (read-out: IC50 of inhibition of PKC activity) was determined as 25 ± 5 nM.

Broadly, the IC50 is the concentration that gives 50% inhibition.
